Holding throughout (experiment): ELISA
(In general: An ELISA detects its analyte on a solid surface through an enzyme-linked reagent.)

The target of assay [1] is T1, Cry4Ba-domain II fragment (Bacillus thuringiensis subsp. …, UniProt P05519 286-470).
T1 sequence: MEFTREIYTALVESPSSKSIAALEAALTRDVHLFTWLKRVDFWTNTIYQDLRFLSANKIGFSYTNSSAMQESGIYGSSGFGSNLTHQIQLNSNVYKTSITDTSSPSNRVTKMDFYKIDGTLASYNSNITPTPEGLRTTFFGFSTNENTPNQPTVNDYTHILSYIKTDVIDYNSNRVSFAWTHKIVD

Assay [2] deals with T1, Cry4Ba-domain II fragment. This is another data set of the same source.
Assay [3] addresses T2, Cry4Ba-domain III fragment (Bacillus thuringiensis subsp. …).
T2 sequence (P05519 whole entry, looked up): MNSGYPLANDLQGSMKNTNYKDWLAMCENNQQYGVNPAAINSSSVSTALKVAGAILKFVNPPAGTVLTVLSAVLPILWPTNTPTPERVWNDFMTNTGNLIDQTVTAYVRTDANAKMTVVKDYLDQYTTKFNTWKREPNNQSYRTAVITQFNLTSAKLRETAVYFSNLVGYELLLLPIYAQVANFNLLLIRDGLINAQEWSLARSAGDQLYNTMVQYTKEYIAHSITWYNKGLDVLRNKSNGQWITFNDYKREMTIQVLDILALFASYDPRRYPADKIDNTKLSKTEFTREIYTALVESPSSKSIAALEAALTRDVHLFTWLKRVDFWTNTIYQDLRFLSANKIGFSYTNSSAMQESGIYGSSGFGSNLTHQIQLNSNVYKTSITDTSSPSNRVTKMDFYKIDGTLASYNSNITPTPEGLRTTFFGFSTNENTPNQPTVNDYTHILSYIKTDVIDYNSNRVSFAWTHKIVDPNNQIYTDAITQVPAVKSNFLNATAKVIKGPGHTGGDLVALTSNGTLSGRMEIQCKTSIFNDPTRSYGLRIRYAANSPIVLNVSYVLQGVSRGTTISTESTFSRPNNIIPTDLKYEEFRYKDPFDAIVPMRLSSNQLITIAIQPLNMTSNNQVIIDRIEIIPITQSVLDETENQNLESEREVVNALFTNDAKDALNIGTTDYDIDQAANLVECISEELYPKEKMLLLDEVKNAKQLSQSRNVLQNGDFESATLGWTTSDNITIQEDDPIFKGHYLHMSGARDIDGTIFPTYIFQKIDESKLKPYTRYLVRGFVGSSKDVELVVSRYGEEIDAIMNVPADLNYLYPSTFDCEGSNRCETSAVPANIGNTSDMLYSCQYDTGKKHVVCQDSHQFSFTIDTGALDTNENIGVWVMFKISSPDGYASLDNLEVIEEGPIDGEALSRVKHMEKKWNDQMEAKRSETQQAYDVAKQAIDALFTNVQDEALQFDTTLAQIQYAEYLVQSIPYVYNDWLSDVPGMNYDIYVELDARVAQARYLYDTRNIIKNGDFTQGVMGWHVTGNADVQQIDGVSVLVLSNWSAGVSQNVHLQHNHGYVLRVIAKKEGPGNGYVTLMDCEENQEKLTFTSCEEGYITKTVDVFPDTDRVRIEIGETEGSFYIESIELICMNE

Where two headings read alike, the source gives them in different places.

B1: Aedes aegypti membrane-bound alkaline phosphatase (Aa-mALP) (receptor)
chain: MTLYRSRAANMSRLRFDVSVWVMVTMCVLSARNCWAQGEYDPNYWNQQAHDLLFEKKDYTMQKVNIAKNIIVFVGSGMSQATVTAARTHKGGENATFPFEQLKWSGNARTYCVDSRVPDSACASTAFLTGVKSNLGTVAVHPNVKRGDCVATSDKVKQLESIAKWALAEGRVVGFATTSRVTAGSNAALYAHSADKDWENDASVTAAGCNATQVNDIAYQLINGDVGKHFKVIFGGGRKNFIPNTETDESGARGLRTDGKNLIQEWKESKTGNAVYITTNSELGALNTTNIDYLMGLFSYDRLPYAADMGEEPNKETPPLVRMVHYSLEMLQKKEHSGGFLLFVEDGNIQEAHKENKPIKAFEQVKHYANAFNMAHMMVSEANTLLISMNDVGSTLSIPGYPARDTDILTEAGTSDKDSKPYLSLAYATGPSYDSYYQPNEGRVNPLAVLQGTPTQKEQTCSAAVPMSEGVNGGEDASVYATGPWAFMFSGGYEQNFIAHAISFASCITDVCGGASSVVVSSAALLLALMVRVFA
Take B1: the Kd is 116 nM in assay [1], 118 nM in assay [2] and 118 ± 8.1 nM in assay [3].

One may read the Kd as the constant that tells how readily two partners part at equilibrium. Read a low Kd as higher affinity.
